Measured values: US20130302313A1

Molecular target: coxsackievirus-adenovirus receptor (CAR) (UniProt P78310)
Assay: cell-based or functional assay

Chain of UniProt P78310 (P78310 20-365 limits assumed): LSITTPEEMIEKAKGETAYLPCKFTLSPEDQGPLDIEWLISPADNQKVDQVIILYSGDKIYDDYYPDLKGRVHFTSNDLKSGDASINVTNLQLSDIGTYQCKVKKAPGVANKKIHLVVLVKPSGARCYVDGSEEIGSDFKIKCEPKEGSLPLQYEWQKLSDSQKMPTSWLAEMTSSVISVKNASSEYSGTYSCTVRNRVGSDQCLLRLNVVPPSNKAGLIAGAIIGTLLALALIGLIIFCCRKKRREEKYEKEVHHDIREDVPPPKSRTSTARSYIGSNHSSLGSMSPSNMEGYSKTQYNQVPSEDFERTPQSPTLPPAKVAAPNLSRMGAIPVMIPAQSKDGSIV

## free soluble Ad5 fiber molecules (from UniProt P11818 1-581) (ligand)
  GFP expression (transduction) of A549 cells by Ad5(GFP) at 500 evg/cell in the presence of soluble Ad5 fiber, relative to absence of soluble fiber (set to 100%): 20%
  Transduction efficacy of A549 cells by Ad5PTD(GFP) at 500 evg/cell in the presence of soluble Ad5 fiber, relative to absence of soluble fiber (set to 100%): 80%
